This note sets out measurements from publication doi:10.1101/2022.02.05.479199 (bioRxiv, 2022).

The target of this experiment is Replication protein A (Saccharomyces cerevisiae RPA) (S. cerevisiae, UniProt P22336;P26754;P26755). Description: AUC.
Replication protein A (Saccharomyces cerevisiae RPA), sequence (P22336 whole entry, chain 1 of 3): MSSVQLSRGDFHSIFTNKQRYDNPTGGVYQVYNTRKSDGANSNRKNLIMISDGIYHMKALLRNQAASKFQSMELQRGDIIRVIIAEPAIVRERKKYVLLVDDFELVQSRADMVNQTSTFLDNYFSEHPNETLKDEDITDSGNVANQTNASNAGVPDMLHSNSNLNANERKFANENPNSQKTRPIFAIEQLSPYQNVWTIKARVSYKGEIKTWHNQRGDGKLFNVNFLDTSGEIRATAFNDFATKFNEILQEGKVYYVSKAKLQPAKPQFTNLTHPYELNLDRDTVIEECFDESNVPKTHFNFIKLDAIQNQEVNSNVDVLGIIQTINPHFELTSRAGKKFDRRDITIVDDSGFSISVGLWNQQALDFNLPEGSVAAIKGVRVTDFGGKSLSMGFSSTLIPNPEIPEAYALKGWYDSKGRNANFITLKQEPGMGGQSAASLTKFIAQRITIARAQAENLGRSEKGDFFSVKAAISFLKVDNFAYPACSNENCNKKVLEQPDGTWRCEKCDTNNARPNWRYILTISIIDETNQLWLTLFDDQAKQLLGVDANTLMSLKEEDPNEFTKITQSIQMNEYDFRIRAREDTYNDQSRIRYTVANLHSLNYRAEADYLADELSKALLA
Replication protein A (Saccharomyces cerevisiae RPA), sequence (P26754 whole entry, chain 2 of 3): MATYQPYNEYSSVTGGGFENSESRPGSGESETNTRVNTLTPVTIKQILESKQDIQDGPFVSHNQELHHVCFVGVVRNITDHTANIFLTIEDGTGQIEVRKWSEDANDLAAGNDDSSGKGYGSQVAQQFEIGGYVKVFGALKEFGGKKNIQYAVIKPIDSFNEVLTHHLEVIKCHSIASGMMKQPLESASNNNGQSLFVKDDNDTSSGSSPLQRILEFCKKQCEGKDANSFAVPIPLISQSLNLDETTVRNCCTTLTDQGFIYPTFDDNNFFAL
Replication protein A (Saccharomyces cerevisiae RPA), sequence (P26755 whole entry, chain 3 of 3): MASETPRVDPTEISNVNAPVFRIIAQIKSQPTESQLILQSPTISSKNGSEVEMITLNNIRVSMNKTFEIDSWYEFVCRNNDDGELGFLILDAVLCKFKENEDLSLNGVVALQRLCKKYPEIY

B1: Rtt105^Cy5 (natural protein)
chain: MYSNHNLNSDDCSFDWNEEKAAELQRTGVSFDRSLTPQSLRTSTRRLSEENKQQSGTMHIDTSPSVVSDIISSRRDRSQDFFGPHSSSPIAPSERQRADQRSRLESMRLTRRRDKMTKVRGGLEKMEEMIMQGEHLREMQRLKQEAQKNALPSDMAEYMEWQNNEDLEDDELLAFIEKQETYKNELEHFLNNANKNVYENNSYPNSHT
modifications: Cy5 (maleimide) on Cys-12
For the molecule B1, the binding result is given as “binds”.
